Results reported in paper PMC9536601.

Tests used:
[1] = target: chimeric hexon of the Ad5 vector Ad5:H1.6 (Ad1 hexon section with HVR7 mutations, on virions) (human adenovirus 5 | human adenovirus 1) (UniProt P04133); assay: SPR; Biacore T200; about 300 to 5,000 RU of Ad virions immobilised on a CM5 chip, coagulation factors flowed over at four concentrations, 50 uL/min; running buffer 10 mM HEPES, 150 mM NaCl, 1 mM CaCl2, 0.5 mM MgCl2, 0.1% BSA, 0.05% polysorbate 20, pH 7.4; regeneration with 3 mM EDTA; global fit to a 1:1 kinetic interaction model, double referencing
[2] = target: chimeric hexon of Ad5:H1.6 (Ad5 vector, hexon residues 112-593 from Ad1 hexon, HVR7 IGVTDRY), on the virion (human adenovirus type 5 | human adenovirus type 1) (UniProt P04133); assay: SPR; Biacore T200; about 300 to 5,000 RU of Ad virions immobilised on a CM5 chip, coagulation factors flowed over at four concentrations, 50 uL/min; 10 mM HEPES, 150 mM NaCl, 1 mM CaCl2, 0.5 mM MgCl2, 0.1% BSA, 0.05% polysorbate 20, pH 7.4; global fit to a 1:1 kinetic interaction model, double referencing

**Q.** Which results are given for “mouse coagulation factor X (from UniProt O88947 41-481) (natural protein)”?
**A.** Kd [1]: 4.2 µM; koff [1]: 0.638 s⁻¹; kon [1]: 152000 M⁻¹ s⁻¹; Kd [2]: 4.2 µM

**Q.** For “mouse prothrombin (coagulation factor II) (from UniProt P19221 44-618) (natural protein)”, which koff [1] is on record?
**A.** 1.41 s⁻¹
